In patent publication US20120148657A1, “Lipoxygenase and Its Use in Wound Healing” (priority 2009, published 2012):

Legend:
epithelial Axolotl cells = test: In vitro wound healing model: proliferation of epithelial cells from Axolotl skin biopsies (Celltiter blue); type: cell-based; conditions: for Epithelial cell proliferation: 1 μM MK-886 and 60 μM NDGA, respectively, plates incubated two days, Celltiter blue fluorescence
Description: In order to investigate the influence of endogenous lipoxygenase activity on the migration and proliferation of epithelial Axolotl cells, skin biopsies with 2 mm diameter were taken form Axolotl tail skin. The skin biopsies were placed in cell culture dishes coated with bovine collagen I to allow for cell migration and proliferation in an in vitro wound healing model. The wound healing is observable by […] of epithelial cell growing from borders of the skin biopsies. The proliferation rates were determined by addition of Celltiter blue (Promega), an assay for detection of metabolic activity as an indirect measurement of cell proliferation based on Resazurin/Resofurin. Two known lipoxygenase inhibitors for the human lipoxygenase were used to examine the effect of lipoxygenase activity on cell proliferation (1 μM MK-886 and 60 μM NDGA, respectively). […] That is, the plates were incubated for two days to ensure proliferation of epidermal cells. Then, the number of metabolizing cells was determined by Resozuran-Resofurin exchange (Celltiter blue, Promega, Madison, USA). 2 μl Resozuran solution was added to each well for two hours and the fluorescence was read in a multiplate reader at 520 nm. The detected fluorescence was expressed in relative fluorescent units (RFU), means and standard deviation were calculated from triplicates with Microsoft Excel and tested for statistical significance using student's T-test. Experiments were repeated at three independent times to ensure reproducibility.

[1] = test system: transiently transfected cell populations; test: Scratch assay of transiently transfected cell populations treated with lipoxygenase inhibitor; type: cell-based, human
Description: (§1) The coding sequence of AmbLOXe was subcloned in frame into the mammalian expression vector pTriEx-1 (Novagen). Plasmids were purified from transformed DH5α using the GenElute plasmid purification Kit (Sigma). Human osteosarcoma cells U2-OS or human spontaneously immortalized keratinocyte cells HaCaT (ATCC) were seeded into 100 mm cell culture dishes and grown over night to 40-50% confluence. Cells were transiently transfected with Fugene6 (Roche, Mannheim, Germany) following the instructions of the manufacturer. Briefly, 18 μl of the reagent were diluted with 600 μl serum-free medium and incubated at room temperature. After 5 min 6 μg of a 1:1 mixture of pTriEx-AmbLOXe and pEGFP-C3 (Clontech), which encodes Green Fluorescent Protein (GFP), were supplemented and incubated for additional 15 min. The transfection complex was added to the cell dishes in a dropwise manner. Cells were incubated for 24 hours before being analyzed for transfection efficiency by detection of GFP positive cells in a flow cytometer (FC-500, Beckman-Coulter, Fullerton, Calif., USA). Only cell populations were used in which about 25% GFP positive cells (U2-OS) or 12% GFP positive cells (HaCaT) could be detected. The cells were seeded into a six well plate until they reached confluence. The monolayer was then wounded with a disposable plastic pipet tip (10 μl-100 μl volume). The cells ere incubated in DMEM High Glucose (Biochrom, Berlin, Germany) supplemented with 10% FCS). The scratches were documented by microphotography and incubated for 16 hours. Then the scratches were again photographed and the remaining areas were measured using CellD (Olympus) software program. All experiments were carried out in quadruplicates and repeated at four independent times. Means and standard deviation were calculated and tested for statistical significance with ANOVA followed by Bonferroni's posthoc test.
In order to determine the influence of lipoxygenase inhibitor on the transiently transfected cell populations, cells transfected with empty vector (control) and scratched cell monolayers transfected with vectors containing human 12R LOX and AmbLOXe, respectively, received an overnight treatment with NHGA.

U2-OS cells = test: Scratch assay for wound closure in transfected U2-OS cells; type: cell-based, human; conditions: for perimeter size of remaining scratch area (mean value): U2-OS cell populations transfected; for perimeter size of remaining scratch area (mean value) / wound closure in scratch assay (FIG. 2): after 16 hours incubation; for scratch width reduction: U2-OS cells transfected with expression plasmid, 16 hours incubation; for wound closure in scratch assay (FIG. 2): U2-OS cells transfected
Description: To compare the effect of epidermal lipoxygenase of human and Axolotl origin, a human cell line, U2-OS was transfected with expression plasmids encoding for the two types of lipoxygenase (pAmbLOXe, phuLOX) in combination with a vector encoding for GFP (pEGFP-C3, Clontech) as a reporter for transfection efficiency. Controls were transfected with empty vector and pEGFP-C3.
as §1
A cDNA fragment coding for full-length AmbLOXe was cloned in frame into the mammalian expression vector pTriEx-1 and transfected together with an expression plasmid for EGFP into the U2-OS cell line to evaluate a possible influence of AmbLOXe expression in a mammalian model system. Only cell populations with a transfection efficiency of about 25% (U2-OS), respectively 12% (HaCaT) were used for all assays and seeded to confluent monolayers which subsequently were wounded with scratches.
The remaining scratch areas photographed after 16 hours incubation were used to determine the influence of AmbLOXe expression on mammalian cell migration. While no AmbLOXe expression could be observed in U2-OS cell populations transfected with an empty vector, and in U2-OS cell populations transfected with huLOX, AmbLOXe expression was detected in U2-OS cell populations transfected with AmbLOXe encoding plasmids. A perimeter size reduction to a mean value of 24806.26 μm in the cell populations transfected with an empty vector was found; while cell populations containing AmbLOXe expressing cells and cell populations containing cells expressing human 12R LOX reduced the photographed scratch area to mean values of 517.46 μm and 2086.86 μm, respectively.

[2] = test system: Mice having a full thickness skin wound; test: Full thickness skin wound animal model (injection of transfected murine embryonic fibroblasts); type: in vivo; conditions: for wound size: compared to human lipoxygenase, empty vector and untreated groups, C57/BR6 female mice; for wound closure (FIG. 5): determined after day 3 and day 7, transfected murine embryonic fibroblasts
Description: That is, murine embryonic fibroblasts were seeded in cell culture dishes to 50% confluence and were transfected with expression plasmids encoding two different types of lipoxygenase (pAmbLOXe, phuLOX), an empty vector was used as control. After 24 hours, the cells were washed and trypsinated. Cells in an amount of 100,000 cells/ml in PBS were resuspended and 200 μl cell suspension was injected into area adjacent to a wound of a full thickness skin wound. Said full thickness skin wound was prepared in advance using mice (C57/BR6 female) where the back was shaved and the skin was disinfected. Thereafter, a full thickness skin wound was set using a 8 mm biopsy punch, resulting in a 50 mm^2 defect. A control group was prepared not treated with any cell suspension. After day 3 and day 7 a photo was taken from the wound and the reduction of wound size was measured and determined statistically.

[3] = test system: HaCaT keratinocyte cell line; test: HaCaT monolayer scratch assay (cell migration); type: cell-based, human; conditions: HaCaT populations transfected; 16 hours incubation; compared to empty vector (p=0.0035) and huLOX (p=0.028) transfected populations
Description: The coding sequence of AmbLOXe was subcloned in frame into the mammalian expression vector pTriEx-1 (Novagen). Plasmids were purified from transformed DH5α using the GenElute plasmid purification Kit (Sigma). Human osteosarcoma cells U2-OS or human spontaneously immortalized keratinocyte cells HaCaT (ATCC) were seeded into 100 mm cell culture dishes and grown over night to 40-50% confluence. Cells were transiently transfected with Fugene6 (Roche, Mannheim, Germany) following the instructions of the manufacturer. Briefly, 18 μl of the reagent were diluted with 600 μl serum-free medium and incubated at room temperature. […] Cells were incubated for 24 hours before being analyzed for transfection efficiency by detection of GFP positive cells in a flow cytometer (FC-500, Beckman-Coulter, Fullerton, Calif., USA). Only cell populations were used in which about 25% GFP positive cells (U2-OS) or 12% GFP positive cells (HaCaT) could be detected. […] Then the scratches were again photographed and the remaining areas were measured using CellD (Olympus) software program. […] Means and standard deviation were calculated and tested for statistical significance with ANOVA followed by Bonferroni's posthoc test. […]
As described for the transfected U2-OS populations cellular migration was determined in HaCaT monolayer scratch assays.

## CC(Cc1ccc(O)c(O)c1)C(C)Cc1ccc(O)c(O)c1 (stereo not drawn) [NDGA]
Epithelial Axolotl cells
  Epithelial cell proliferation: significantly reduced

## CC(C)c1ccc2c(c1)c(SC(C)(C)C)c(CC(C)(C)C(=O)O)n2Cc1ccc(Cl)cc1 [MK-886]
Epithelial Axolotl cells
  Epithelial cell proliferation: significantly reduced
Epithelial Axolotl cells; treatment of MK-886
  effect on the Axolotl epithelial cells compared with NDGA: equal effect

## CC(Cc1ccc(O)c(O)c1)C(C)Cc1ccc(O)c(O)c1 (stereo not drawn) [NHGA]
[1]; cell populations expressing AmbLOXe, overnight treatment with NHGA
  scratch area (mean value): 4428.33 μm
[1]; cells expressing huLOX, overnight treatment with NHGA
  migration behaviour compared to the solvent treated monolayers: no significant differences
[1]; empty vector transfected cells, overnight treatment with NHGA
  migration behaviour compared to the solvent treated monolayers: no significant differences

B1: AmbLOXe: epidermal lipoxygenase from axolotl, Seq. ID. Nos. 1 and 2, EMBL Accession No. EU814616; tested by expression plasmid transfection (protein, listed as Ambystoma mexicanum)
chain: MVDEYRIKEDRDLGEILLIRLHKGPFSIFPEDNWYCMYVTVTSPGGVIYHFPCYRWIEGYPTVELAEGTAMLSSASNLHVTLKKQRESDLEQRRKVYRWKVYHPSFPKCIDVANNDELDKDAKYSITKTVHFVINKNVSNIAIKLKGFDGRQESWKSFDELKRVYWTLKTAKSEYVSHHWKEDAFFGYQYLNGPDPTLIKRCNKIPGNFPVTDEMVSYSLGASTSLEKELQKGNIYIVDHKMMEGLRANVLNGKQQYMAAPLCLFYRTPKDEVIPLAIQLNQTPGSETPLFLPSDNEWDWILAKIWVRSTSFAFHQAVSHFLRTHVFAEVFCLATLRQLPMAHPLYKLLVPHLRYTLQINVLARERLIGPGGAFDKNTAVGIAGIAELIKRDMETLKYSTLCLPENLQSREVESLPHFYYRDDGMKIWLAIESYVSGIVDYYYKSEESIQKDPELQAWVAEIFKEGFLERKSSGIPSSLETRVELIKYLTMVIFTCSAEHAAVNSGQFDFLSWMPNGPSTMRQPPPKTKGLATMESVLEALPEVGITTNIMTTVWTLSKEPGDMRPLGTYPDEHFTEEGPKQCIRAFQERLSEISREIEHRNASLPIKYNYMNPKVIENSVSI
U2-OS cells
  perimeter size of remaining scratch area (mean value): 517.46 μm
  scratch width reduction: 89.94%
  wound closure in scratch assay (FIG. 2): substantially completed
[1]; solvent treated cell populations expressing AmbLOXe
  measured wound scratch (mean value): 3388.99 μm
[2]; day 3
  wound size: reduced dramatically
[2]; day 7
  wound size: reduced dramatically
[2]
  wound closure (FIG. 5): significant reduction
[3]
  remaining scratch perimeter size: significantly smaller

B2: huLOX: human epidermal lipoxygenase (human 12R LOX) expressed from plasmid phuLOX, comparator (protein, UniProt O75342 1-701, looked up)
Arachidonate 12-lipoxygenase, …: MATYKVRVATGTDLLSGTRDSISLTIVGTQGESHKQLLNHFGRDFATGAVGQYTVQCPQDLGELIIIRLHKERYAFFPKDPWYCNYVQICAPNGRIYHFPAYQWMDGYETLALREATGKTTADDSLPVLLEHRKEEIRAKQDFYHWRVFLPGLPSYVHIPSYRPPVRRHRNPNRPEWNGYIPGFPILINFKATKFLNLNLRYSFLKTASFFVRLGPMALAFKVRGLLDCKHSWKRLKDIRKIFPGKKSVVSEYVAEHWAEDTFFGYQYLNGVNPGLIRRCTRIPDKFPVTDDMVAPFLGEGTCLQAELEKGNIYLADYRIMEGIPTVELSGRKQHHCAPLCLLHFGPEGKMMPIAIQLSQTPGPDCPIFLPSDSEWDWLLAKTWVRYAEFYSHEAIAHLLETHLIAEAFCLALLRNLPMCHPLYKLLIPHTRYTVQINSIGRAVLLNEGGLSAKGMSLGVEGFAGVMVRALSELTYDSLYLPNDFVERGVQDLPGYYYRDDSLAVWNALEKYVTEIITYYYPSDAAVEGDPELQSWVQEIFKECLLGRESSGFPRCLRTVPELIRYVTIVIYTCSAKHAAVNTGQMEFTAWMPNFPASMRNPPIQTKGLTTLETFMDTLPDVKTTCITLLVLWTLSREPDDRRPLGHFPDIHFVEEAPRRSIEAFRQRLNQISHDIRQRNKCLPIPYYYLDPVLIENSISI
U2-OS cells
  perimeter size of remaining scratch area (mean value): 2086.86 μm
  scratch width reduction: 56.75%
  wound closure in scratch assay (FIG. 2): has not finished yet
[2]
  wound closure (FIG. 5): comparable with the control groups
